Where a chain is given by its changes, count along the chain named.
Key:
[1] = molecular target: T1, human LINGO-1-ΔLRR-Fc (Igleader-hsLINGO-1-ΔLRR-Fc) (human, UniProt Q96FE5 40-556); experiment: ELISA, captured Fc fusion protein
T1 construct: Heterologous secretion signal left out; also called human LINGO-1 lacking the LRR domain
T1 sequence: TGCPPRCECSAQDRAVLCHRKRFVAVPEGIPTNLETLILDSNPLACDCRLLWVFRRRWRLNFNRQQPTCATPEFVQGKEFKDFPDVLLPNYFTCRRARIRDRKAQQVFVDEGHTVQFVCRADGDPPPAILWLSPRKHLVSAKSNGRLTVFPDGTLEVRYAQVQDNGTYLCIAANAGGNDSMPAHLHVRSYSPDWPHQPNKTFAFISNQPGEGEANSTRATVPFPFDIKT

[2] = molecular target: T2, human NgR-Fc fusion protein (R&D Systems) (human, UniProt Q9BZR6 27-447, limits assumed); experiment: ELISA, captured Fc fusion protein
T2 construct: Commercial protein; also called captured human NgR-Fc; not shown: Fc part of the commercial fusion protein; not described
T2 sequence (looked up): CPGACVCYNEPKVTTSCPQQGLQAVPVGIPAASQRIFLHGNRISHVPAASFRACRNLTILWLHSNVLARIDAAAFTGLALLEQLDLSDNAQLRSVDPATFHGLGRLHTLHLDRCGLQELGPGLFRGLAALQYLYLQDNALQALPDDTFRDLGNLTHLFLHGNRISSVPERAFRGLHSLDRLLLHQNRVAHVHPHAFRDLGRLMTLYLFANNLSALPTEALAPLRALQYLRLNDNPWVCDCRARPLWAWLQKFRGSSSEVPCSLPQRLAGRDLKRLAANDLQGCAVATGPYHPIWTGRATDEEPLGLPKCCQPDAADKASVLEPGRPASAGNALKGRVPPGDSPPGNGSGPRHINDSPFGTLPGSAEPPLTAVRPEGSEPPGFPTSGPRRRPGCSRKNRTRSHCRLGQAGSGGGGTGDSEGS

[3] = molecular target: human LINGO-1 expressed on CHO-K1 cells (CHO-K1-hLINGO-1) (human) (UniProt Q96FE5); experiment: apparent KD, FACS saturation binding on CHO-K1-hLINGO-1 cells, Fab format
[4] = molecular target: T3, rat LINGO-1 expressed on CHO-K1 cells (CHO-K1-rLINGO-1) (rat, UniProt A0A8I5ZPI2 34-614); experiment: apparent KD, FACS saturation binding on CHO-K1-rLINGO-1 cells, Fab format
T3 construct: range 34-614; not shown: 2 amino acid residue linker
T3 sequence: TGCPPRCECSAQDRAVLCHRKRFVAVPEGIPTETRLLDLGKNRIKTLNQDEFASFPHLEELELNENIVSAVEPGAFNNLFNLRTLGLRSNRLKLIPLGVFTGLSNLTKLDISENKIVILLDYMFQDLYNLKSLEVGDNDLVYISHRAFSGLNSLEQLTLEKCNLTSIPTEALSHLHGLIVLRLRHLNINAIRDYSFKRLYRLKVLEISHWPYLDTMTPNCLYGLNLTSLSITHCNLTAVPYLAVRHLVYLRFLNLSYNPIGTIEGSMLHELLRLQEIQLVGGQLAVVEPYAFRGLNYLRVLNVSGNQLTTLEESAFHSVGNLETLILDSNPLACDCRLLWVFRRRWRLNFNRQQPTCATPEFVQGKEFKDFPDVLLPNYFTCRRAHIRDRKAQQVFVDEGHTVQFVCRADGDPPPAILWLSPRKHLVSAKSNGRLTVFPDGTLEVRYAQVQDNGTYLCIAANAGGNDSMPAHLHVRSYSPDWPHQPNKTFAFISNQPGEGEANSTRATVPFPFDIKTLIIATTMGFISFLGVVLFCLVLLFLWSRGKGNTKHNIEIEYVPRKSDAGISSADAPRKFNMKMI
Protocol: (§1) Cell based affinity of anti-LINGO-1 specific antibodies is determined by FACS saturation binding experiments. […] Otherwise the staining procedure is done identical to the FACS staining procedure described above.
(§2) In detail, CHO-K1-hLINGO-1, CHO-K1-cmLINGO-1 or CHO-K1-rLINGO-1 are detached from culture flasks by versene, washed with FACS buffer and resuspended in FACS buffer. Purified anti-LINGO-1 Fabs are serially diluted in FACS buffer and spread into round bottom 96-well microtiter plates (NUNC™, Wiesbaden, Germany). For each concentration, duplicate wells are incubated with 1.25×10⁴ cells for 30-60 min on ice in a total volume of 100 μl.

[5] = molecular target: T4, cynomolgus monkey LINGO-1 expressed on CHO-K1 cells (CHO-K1-cmLINGO-1) (cynomolgus monkey, UniProt Q9N008 34-614); experiment: apparent KD, FACS saturation binding on CHO-K1-cmLINGO-1 cells, Fab format
T4 construct: range 34-614; also called Cynomolgus LINGO-1; not shown: 2 amino acid residue linker
T4 sequence (looked up): T3 sequence with G261S, V286M, A315V, H386R, S494P
Protocol: as §1, §2

[6] = molecular target: Unrelated Fc; experiment: ELISA, Fc fusion captured via goat anti-human IgG Fc, Fab detected with AP-conjugated secondary and AttoPhos
[7] = molecular target: T1, human LINGO-1-ΔLRR-Fc …; experiment: as above
[8] = molecular target: T2, human NgR-Fc fusion protein (R&D …); experiment: as above
[9] = molecular target: T5, human LINGO-1-Fc fusion protein (natleader-hsLINGO-1-Fc) (human, UniProt Q96FE5 42-556); experiment: as above
T5 construct: also called human recombinant LINGO-1-Fc; captured human LINGO-1-Fc; not shown: protein lette
T5 sequence: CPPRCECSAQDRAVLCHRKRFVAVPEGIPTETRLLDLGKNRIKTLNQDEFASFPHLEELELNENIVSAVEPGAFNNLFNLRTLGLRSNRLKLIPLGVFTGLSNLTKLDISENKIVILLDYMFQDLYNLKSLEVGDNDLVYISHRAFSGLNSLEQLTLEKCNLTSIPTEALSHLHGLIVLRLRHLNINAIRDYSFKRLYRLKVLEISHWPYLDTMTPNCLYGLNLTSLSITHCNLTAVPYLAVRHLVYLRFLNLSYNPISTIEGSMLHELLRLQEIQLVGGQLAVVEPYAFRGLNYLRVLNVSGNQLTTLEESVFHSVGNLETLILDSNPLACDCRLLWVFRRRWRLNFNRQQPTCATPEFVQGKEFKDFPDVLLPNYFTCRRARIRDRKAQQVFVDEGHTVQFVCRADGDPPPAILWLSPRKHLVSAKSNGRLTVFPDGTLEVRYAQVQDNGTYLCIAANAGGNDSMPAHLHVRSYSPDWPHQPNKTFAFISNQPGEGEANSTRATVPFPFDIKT

B1: anti-LINGO-1 Fab 4784 (Fab, V domains shown)
VH: QVQLKESGPALVKPTQTLTLTCTFSGFSLSSSGVGVGWIRQPPGKALEWLAHIGSDDDKYYSTSLKTRLTISKDTSKNQVVLTMTNMDPVDTATYYCARNQQYGDGYPGYFDYWGQGTLVTVSS
VL: DIELTQPPSVSVAPGQTARISCSGDNIGNYYVYWYQQKPGQAPVLVIYEDTNRPSGIPERFSGSNSGNTATLTISGTQAEDEADYYCQSYDNLHEQVFGGGTKLTVLG
B1 was tested, and the binding result [1] was “no binding”, the binding result [2] was “no binding” and the Kd [3] was 14.1 nM. It also gave a Kd [4] of 24 nM, a Kd [5] of 27.1 nM and a relative fluorescence units (RFU) [6] of 52 RFU. For the same binder, the “relative fluorescence units (RFU)” value [7] was 49 RFU, the “relative fluorescence units (RFU)” value [8] was 68 RFU and the “relative fluorescence units (RFU)” value [9] was 98 RFU.

— patent US20140255415A1 (Novartis, published 2014)
